Consider 5 molecules from patent US20240336907A1, “NOVEL ENDO-ß-N-ACETYLGLUCOSAMINIDASE” (priority 2020, published 2024).

In assay [1] the test system is (Fucα1,6)GlcNAc-mAb2. In words: One-pot method with various sugar chain donors, Endo-Rp N172H and Endo-Si D241M/Q311L. Type of assay: biochemical. As to conditions: donor 50 eq., Endo-Rp N172H 8 μg, Endo-Si D241M/Q311L 10 μg, 28° C., pH 7.5. As to the method:
Transglycosylation activity was evaluated as follows. […] When SGP was used as a donor, the transglycosylation rate was calculated in accordance with the formula for computation described in Example 5.

In assay [2] the test system is (Fucα1,6)GlcNAc-mAb2. In words: One-pot method: Endo-Rp mutant enzymes (enzyme A) combined with Endo-Si D241Q, SGP donor. Type of assay: biochemical. To be noted: Endo-Rp mutant enzyme 8 μg with Endo-Si D241Q 5 μg, SGP (50 eq.), 28° C., pH 7.5. As to the method:
Using Endo-Rp, which is known to transfer a sugar chain from a sugar chain donor, SGP, to a GlcNAc derivative, as a representative of enzyme A, the property of enzyme A that can be used in combination with Endo-Si was investigated.
The transglycosylation activity on an antibody by the one-pot method was evaluated as follows. A 50 mM (sodium) phosphorate buffer (pH 7.5) solution (17 μL) containing (Fucα1,6)GlcNAc-mAb2 (0.5 mg), SGP (0.485 mg (50 eq.)), Endo-M N175Q (manufactured by Tokyo Kasei Kogyo Co., Ltd.) (2.5 mU) or each of various Endo-Rp mutant enzymes (8 μg) and Endo-Si D241Q (5 μg) was prepared and incubated at 28° C. A sample was taken from each of the reaction solutions at 2, 4, 6, 24, and 48 hours after initiation of the reaction and analyzed for protein by a fully automated electrophoresis system as mentioned above. In the chromatogram obtained, the transglycosylation rate was calculated in accordance with the formula for computation described in Example 5.

Positions count from the first letter of the chain named. In names and notes the source's numbering stands.

With sialyl glycopeptide [SGP], the “Transglycosylation rate (%)” value is reported as 3.8% in the assay with (Fucα1,6)GlcNAc-mAb2 [1] (2 h); 5.0% in the assay with (Fucα1,6)GlcNAc-mAb2 [1] (4 h); 11.2% in the assay on (Fucα1,6)GlcNAc-mAb2 [1] (6 h); 53.5% with (Fucα1,6)GlcNAc-mAb2 [1] (24 h); 89.7% in the assay on (Fucα1,6)GlcNAc-mAb2 [1] (48 h).

B1: Endo-Rp W278F/N172D/F307Y (protein)
chain: MPSLQLQPDDKLAPVSFALKSMNELRDWTPDEKIKFNVSSVALQPRVKNALKPQLLLTHDMAGGYKEDKNIQGNNYKDIYNIQYWHLADTFVYFSHERVSIPPVNWTNACHRNGVKCLGTFLVEGNNQMHEMEALLHGPPLLNNTDDPMRLWSPYYADQLVAIAKHYGFDGWLFDIECEFFPFPTNPKFKAEELAKFLHYFKEKLHNEIPGSQLIWYDSMTNEGEIHWQNQLTWKNELFFKNTDGIFLNYWWKKEYPEMARRVAEGIGRSGLEVYFGTDVFGRHTYGGGGFKSYKGVKTAYSAMTSSALYGMAWTYEHFEKSEFEKMDRLFWCGGKYSDYPPPPPKNPDDEKEVESDDSEDELMYGHKKGIADTVESIPVPGTDWFVTNFDRGFGNRFYYRGKRLLSQPWSHLSHQAILPNKSYRNPEIYPTDQNIKITSSLDCDHGAFLGGTSLIIKGQRFNHRESHDVETEISIPLYKLSLDASKGCSLRYIYRTLLMKDVKLTVACHFSLKTNDSVNFFKVWQPDENFSFEYDDGMRATVTTENSTESRCFLLRTTEEDTGENDWITKTINVPAVPEGSQLYITRLEVSVVLDTAGLVGLVNQVIACLGYISIIPTINSGIKTDSSRIIQDLFWKDQKYTKIGKESLDDIAQEEVHRYYGTLNWENTANVVNAWEEIDYYNVFYKESDDSATRIFLGTAFCNQFRVSGLDIILSKLPKIVIEAVNKEGYISSSGSIDLSLN
Regarding B1, the “Change in transglycosylation rate (%) with time” value (“Change … (%) with time” for short) in the assay on (Fucα1,6)GlcNAc-mAb2 [2] (2 h) came to 12.0%; in the assay on (Fucα1,6)GlcNAc-mAb2 [2] (4 h), 19.0%; in the assay on (Fucα1,6)GlcNAc-mAb2 [2] (6 h), 24.9%; with (Fucα1,6)GlcNAc-mAb2 [2] (24 h) it was 76.5%; with (Fucα1,6)GlcNAc-mAb2 [2] (48 h), 93.1%.

B2: Endo-Rp W278F/N172D/F307H (protein)
chain: B1 chain with Y310H
Take B2: the “Change … (%) with time” value in the assay with (Fucα1,6)GlcNAc-mAb2 [2] (2 h) is given as 8.8%; in the assay on (Fucα1,6)GlcNAc-mAb2 [2] (4 h), 13.4%; with (Fucα1,6)GlcNAc-mAb2 [2] (6 h) it was 17.7%; with (Fucα1,6)GlcNAc-mAb2 [2] (24 h), 66.1%; in the assay with (Fucα1,6)GlcNAc-mAb2 [2] (48 h) it was 91.1%.

B3: Endo-Rp Y214F/F307Y/L306I (protein)
chain: B1 chain with D175N, Y217F, F281W, L309I
On to B3, for which the “Change … (%) with time” value with (Fucα1,6)GlcNAc-mAb2 [2] (2 h) stood at 34.5%; in the assay on (Fucα1,6)GlcNAc-mAb2 [2] (4 h), 53.0%; in the assay with (Fucα1,6)GlcNAc-mAb2 [2] (6 h), 63.4%; in the assay with (Fucα1,6)GlcNAc-mAb2 [2] (24 h) it was 87.4%; with (Fucα1,6)GlcNAc-mAb2 [2] (48 h), 88.8%.

B4: Endo-Rp W278F/N172D/A310D (protein)
chain: B1 chain with Y310F, A313D
Turning to B4, the “Change … (%) with time” value with (Fucα1,6)GlcNAc-mAb2 [2] (2 h) is given as 0.0%; in the assay with (Fucα1,6)GlcNAc-mAb2 [2] (4 h) it was 0.0%; with (Fucα1,6)GlcNAc-mAb2 [2] (6 h), 0.0%; with (Fucα1,6)GlcNAc-mAb2 [2] (24 h) it was 8.5%; in the assay on (Fucα1,6)GlcNAc-mAb2 [2] (48 h), 17.0%.
